Test system: six V600E BRAF melanoma cell lines
Assay: Screening of recombinant RTK ligands for ability to confer resistance to BRAFi (PLX4720) or MEKi (PD184352) (Table 4)
Format: cell-based, human
Parameters: ability of recombinant RTK ligand to confer resistance / ability of recombinant RTK ligand to confer resistance (screening value): scale not given here
Outline: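 Resistance to BRAFi (PLX4720) or MEKi (PD184352) was tested in six V600E BRAF melanoma lines given one of 22 recombinant RTK ligands. For a subset of RTKs, activation was checked by high-throughput tyrosine kinase phosphorylation profiling and western blot.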

B1: flt-3 ligand (FL) (protein, UniProt P49771 27-235, looked up)
Fms-related tyrosine kinase 3 …: TQDCSFQHSPISSDFAVKIRELSDYLLQDYPVTVASNLQDEELCGGLWRLVLAQRWMERLKTVAGSKMQGLLERVNTEIHFVTKCAFQPPPSCLRFVQTNISRLLQETSEQLVALKPWITRQNFSRCLELQCQPDSSTLPPPWSPRPLEATAPTAPQPPLLLLLLLPVGLLLLAAAWCLHWQRTRRRTPRPGEQVPPVPSPQDLLLVEH
B1 was tested, and the “ability of recombinant RTK ligand to confer resistance” value (“ability of recombinant RTK ligand” below) (A2058, PD184352 - 1 uM, ligand 0.4 ng/ml) was 1.03, the “ability of recombinant RTK ligand” value (A2058, PD184352 - 1 uM, ligand 1.6 ng/ml) was 0.99 and the “ability of recombinant RTK ligand” value (A2058, PD184352 - 1 uM, ligand 6.25 ng/ml) was 1.00. For the same molecule, the “ability of recombinant RTK ligand” value (A2058, PD184352 - 1 uM, ligand 25 ng/ml) was 1.02, the “ability of recombinant RTK ligand” value (A2058, PD184352 - 1 uM, ligand 100 ng/ml) was 0.89 and the “ability of recombinant RTK ligand” value (A2058, PLX4720 - 2 uM, ligand 0.4 ng/ml) was 0.97. The “ability of recombinant RTK ligand” value (A2058, PLX4720 - 2 uM, ligand 1.6 ng/ml) was 0.98, the “ability of recombinant RTK ligand” value (A2058, PLX4720 - 2 uM, ligand 6.25 ng/ml) was 1.01 and the “ability of recombinant RTK ligand” value (A2058, PLX4720 - 2 uM, ligand 25 ng/ml) was 1.06. For the same molecule, the “ability of recombinant RTK ligand” value (A2058, PLX4720 - 2 uM, ligand 100 ng/ml) was 0.93, the “ability of recombinant RTK ligand” value (C32, PD184352 - 1 uM, ligand 0.4 ng/ml) was 1.02 and the “ability of recombinant RTK ligand” value (C32, PD184352 - 1 uM, ligand 1.6 ng/ml) was 1.08. The “ability of recombinant RTK ligand” value (C32, PD184352 - 1 uM, ligand 6.25 ng/ml) was 1.10, the “ability of recombinant RTK ligand” value (C32, PD184352 - 1 uM, ligand 25 ng/ml) was 1.08 and the “ability of recombinant RTK ligand” value (C32, PD184352 - 1 uM, ligand 100 ng/ml) was 1.07. The “ability of recombinant RTK ligand” value (C32, PLX4720 - 2 uM, ligand 0.4 ng/ml) was 0.99, the “ability of recombinant RTK ligand” value (C32, PLX4720 - 2 uM, ligand 1.6 ng/ml) was 0.97 and the “ability of recombinant RTK ligand” value (C32, PLX4720 - 2 uM, ligand 6.25 ng/ml) was 1.00. The “ability of recombinant RTK ligand” value (C32, PLX4720 - 2 uM, ligand 25 ng/ml) was 0.87, the “ability of recombinant RTK ligand” value (C32, PLX4720 - 2 uM, ligand 100 ng/ml) was 0.97 and the “ability of recombinant RTK ligand” value (Colo 829, PD184352 - 1 uM, ligand 0.4 ng/ml) was 1.07. The “ability of recombinant RTK ligand” value (Colo 829, PD184352 - 1 uM, ligand 1.6 ng/ml) was 0.98, the “ability of recombinant RTK ligand” value (Colo 829, PD184352 - 1 uM, ligand 6.25 ng/ml) was 0.97 and the “ability of recombinant RTK ligand” value (Colo 829, PD184352 - 1 uM, ligand 25 ng/ml) was 1.05. The “ability of recombinant RTK ligand” value (Colo 829, PD184352 - 1 uM, ligand 100 ng/ml) was 0.97, the “ability of recombinant RTK ligand” value (Colo 829, PLX4720 - 2 uM, ligand 0.4 ng/ml) was 1.08 and the “ability of recombinant RTK ligand” value (Colo 829, PLX4720 - 2 uM, ligand 1.6 ng/ml) was 0.98. For the same molecule, the “ability of recombinant RTK ligand” value (Colo 829, PLX4720 - 2 uM, ligand 6.25 ng/ml) was 1.00, the “ability of recombinant RTK ligand” value (Colo 829, PLX4720 - 2 uM, ligand 25 ng/ml) was 1.05 and the “ability of recombinant RTK ligand” value (Colo 829, PLX4720 - 2 uM, ligand 100 ng/ml) was 0.97. For the same molecule, the “ability of recombinant RTK ligand” value (G-361, PD184352 - 1 uM, ligand 0.4 ng/ml) was 1.04, the “ability of recombinant RTK ligand” value (G-361, PD184352 - 1 uM, ligand 1.6 ng/ml) was 1.09 and the “ability of recombinant RTK ligand” value (G-361, PD184352 - 1 uM, ligand 6.25 ng/ml) was 0.97. For the same molecule, the “ability of recombinant RTK ligand” value (G-361, PD184352 - 1 uM, ligand 25 ng/ml) was 1.01, the “ability of recombinant RTK ligand” value (G-361, PD184352 - 1 uM, ligand 100 ng/ml) was 0.89 and the “ability of recombinant RTK ligand” value (G-361, PLX4720 - 2 uM, ligand 0.4 ng/ml) was 1.00. For the same molecule, the “ability of recombinant RTK ligand” value (G-361, PLX4720 - 2 uM, ligand 1.6 ng/ml) was 0.87, the “ability of recombinant RTK ligand” value (G-361, PLX4720 - 2 uM, ligand 6.25 ng/ml) was 0.88 and the “ability of recombinant RTK ligand” value (G-361, PLX4720 - 2 uM, ligand 25 ng/ml) was 0.88. The “ability of recombinant RTK ligand” value (G-361, PLX4720 - 2 uM, ligand 100 ng/ml) was 0.79, the “ability of recombinant RTK ligand” value (SK-MEL-5, PD184352 - 1 uM, ligand 0.4 ng/ml) was 0.97 and the “ability of recombinant RTK ligand” value (SK-MEL-5, PD184352 - 1 uM, ligand 1.6 ng/ml) was 0.97. For the same molecule, the “ability of recombinant RTK ligand” value (SK-MEL-5, PD184352 - 1 uM, ligand 6.25 ng/ml) was 1.00, the “ability of recombinant RTK ligand” value (SK-MEL-5, PD184352 - 1 uM, ligand 25 ng/ml) was 0.92 and the “ability of recombinant RTK ligand” value (SK-MEL-5, PD184352 - 1 uM, ligand 100 ng/ml) was 0.90. For the same molecule, the “ability of recombinant RTK ligand” value (SK-MEL-5, PLX4720 - 2 uM, ligand 0.4 ng/ml) was 1.07, the “ability of recombinant RTK ligand” value (SK-MEL-5, PLX4720 - 2 uM, ligand 1.6 ng/ml) was 1.07 and the “ability of recombinant RTK ligand” value (SK-MEL-5, PLX4720 - 2 uM, ligand 6.25 ng/ml) was 1.03. For the same molecule, the “ability of recombinant RTK ligand” value (SK-MEL-5, PLX4720 - 2 uM, ligand 25 ng/ml) was 0.93, the “ability of recombinant RTK ligand” value (SK-MEL-5, PLX4720 - 2 uM, ligand 100 ng/ml) was 1.04 and the “ability of recombinant RTK ligand” value (SK-MEL-28, PD184352 - 1 uM, ligand 0.4 ng/ml) was 1.04. For the same molecule, the “ability of recombinant RTK ligand” value (SK-MEL-28, PD184352 - 1 uM, ligand 1.6 ng/ml) was 0.95, the “ability of recombinant RTK ligand” value (SK-MEL-28, PD184352 - 1 uM, ligand 6.25 ng/ml) was 0.98 and the “ability of recombinant RTK ligand” value (SK-MEL-28, PD184352 - 1 uM, ligand 25 ng/ml) was 0.78. For the same molecule, the “ability of recombinant RTK ligand” value (SK-MEL-28, PD184352 - 1 uM, ligand 100 ng/ml) was 0.99, the “ability of recombinant RTK ligand” value (SK-MEL-28, PLX4720 - 2 uM, ligand 0.4 ng/ml) was 0.94 and the “ability of recombinant RTK ligand” value (SK-MEL-28, PLX4720 - 2 uM, ligand 1.6 ng/ml) was 0.90. For the same molecule, the “ability of recombinant RTK ligand” value (SK-MEL-28, PLX4720 - 2 uM, ligand 6.25 ng/ml) was 0.86, the “ability of recombinant RTK ligand” value (SK-MEL-28, PLX4720 - 2 uM, ligand 25 ng/ml) was 0.82 and the “ability of recombinant RTK ligand” value (SK-MEL-28, PLX4720 - 2 uM, ligand 100 ng/ml) was 0.98.

From US20140348819A1, “Methods of Treating Cancer” (Dana-Farber Cancer Institute, Inc., priority 2011, published 2014)
